Source: patent publication EP4748847A1, “PEPTIDE COMPLEX HAVING VEGFR -2 AGONIST ACTIVITY” (Peptidream Inc, priority 2023, dated 2025)
Bridges are numbered along the chain shown (N, C = ends). [ ]: non-standard residue; d: D form. hTyr = N[C@@H](CCc1ccc(O)cc1)C(=O)O; Tle = CC(C)(C)[C@H](N)C(=O)O; 3Py6NH2 = not defined here; 4Py2NH2 = not defined here; F4aao = not defined here; Atb = not defined here; Yph = not defined here

B1: Peptide complex Dimer Structure No. 16 (peptide)
peptide: {CH2CO}-WWVDVKDDLY[Yph]VDCG-NH2
modifications: thioether N-14; not fully specified (residue 6); reading uncertain; also: homodimer: Lys6 joined to Lys6 of second copy by cPEG17c (Linker Structure No. 4)
B2: Peptide complex Dimer Structure No. 24 (peptide)
peptide: {CH2CO}-[F4aao]W[Tle]DVKDDLYF[hTyr]DCG-NH2
modifications: thioether N-14; not fully specified (residue 6); reading uncertain; also: homodimer: Lys6 joined to Lys6 of second copy by cPEG17c (Linker Structure No. 4)
B3: Peptide complex Dimer Structure No. 18 (peptide)
peptide: {CH2CO}-WWVDVKDDLYF[hTyr]DCG-NH2
modifications: thioether N-14; not fully specified (residue 6); also: homodimer: Lys6 joined to Lys6 of second copy by cPEG17c (Linker Structure No. 4)
B4: Peptide complex Dimer Structure No. 17 (peptide)
peptide: {CH2CO}-WWVDVKDDLY[F4G]VDCG-NH2
modifications: thioether N-14; not fully specified (residue 6); also: homodimer: Lys6 joined to Lys6 of second copy by cPEG17c (Linker Structure No. 4)
B5: Peptide complex Dimer Structure No. 20 (peptide)
peptide: {CH2CO}-WW[Tle]DVKDDLY[Yph][hTyr]DCG-NH2
modifications: thioether N-14; not fully specified (residue 6); reading uncertain; also: homodimer: Lys6 joined to Lys6 of second copy by cPEG17c (Linker Structure No. 4)
B6: Peptide complex Dimer Structure No. 23 (peptide)
peptide: {CH2CO}-[3Py6NH2]W[Tle]DVKDDLYF[hTyr]DCG-NH2
modifications: thioether N-14; not fully specified (residue 6); reading uncertain; also: homodimer: Lys6 joined to Lys6 of second copy by cPEG17c (Linker Structure No. 4)
B7: Peptide complex Dimer Structure No. 22 (peptide)
peptide: {CH2CO}-[4Py2NH2]W[Tle]DVKDDLYF[hTyr]DCG-NH2
modifications: thioether N-14; not fully specified (residue 6); reading uncertain; also: homodimer: Lys6 joined to Lys6 of second copy by cPEG17c (Linker Structure No. 4)
B8: Peptide complex Dimer Structure No. 15 (peptide)
peptide: {CH2CO}-WWVD[Tle]KDDLYFVDCG-NH2
modifications: thioether N-14; not fully specified (residue 6); also: homodimer: Lys6 joined to Lys6 of second copy by cPEG17c (Linker Structure No. 4)
B9: Peptide complex Dimer Structure No. 21 (peptide)
peptide: {CH2CO}-[Hcit]W[Tle]DVKDDLYF[hTyr]DCG-NH2
modifications: thioether N-14; not fully specified (residue 6); also: homodimer: Lys6 joined to Lys6 of second copy by cPEG17c (Linker Structure No. 4)
B10: Peptide complex Dimer Structure No. 19 (peptide)
peptide: {CH2CO}-WW[Tle]DVKDDLY[Yph]VDCG-NH2
modifications: thioether N-14; not fully specified (residue 6); reading uncertain; also: homodimer: Lys6 joined to Lys6 of second copy by cPEG17c (Linker Structure No. 4)
B11: Peptide complex Dimer Structure No. 52 (peptide)
peptide: {CH2CO}-WW[Tle]DVKDD[Atb]YF[hTyr]DCG-NH2
modifications: thioether N-14; reading uncertain; also: homodimer: Lys6 joined to Lys6 of second copy by OCOPEG17OCO (Linker Structure No. 6)
B12: Peptide complex Dimer Structure No. 45 (peptide)
peptide: {CH2CO}-WW[Tle]DVKDDLY[F4G][hTyr]DCG-NH2
modifications: thioether N-14; also: homodimer: Lys6 joined to Lys6 of second copy by cPEG17c (Linker Structure No. 4)
B13: Peptide complex Dimer Structure No. 43 (peptide)
peptide: {CH2CO}-WW[Tle]DVKDDLY[F4G]VDCG-NH2
modifications: thioether N-14; also: homodimer: Lys6 joined to Lys6 of second copy by cPEG17c (Linker Structure No. 4)
B14: Peptide complex Dimer Structure No. 46 (peptide)
peptide: {CH2CO}-[W7N]W[Tle]DVKDDLYF[hTyr]DCG-NH2
modifications: thioether N-14; also: homodimer: Lys6 joined to Lys6 of second copy by cPEG17c (Linker Structure No. 4)
B15: Peptide complex Dimer Structure No. 49 (peptide)
peptide: {CH2CO}-WW[Tle]DVKDD[Atb]YF[hTyr]DCG-NH2
modifications: thioether N-14; reading uncertain; also: homodimer: Lys6 joined to Lys6 of second copy by OCOPEG13OCO (Linker Structure No. 5)
B16: Peptide complex Dimer Structure No. 47 (peptide)
peptide: {CH2CO}-WW[Tle]DVKNDLYF[hTyr]DCG-NH2
modifications: thioether N-14; also: homodimer: Lys6 joined to Lys6 of second copy by cPEG17c (Linker Structure No. 4)
B17: Peptide complex Dimer Structure No. 51 (peptide)
peptide: {CH2CO}-WW[Tle]DVKDDLY[F4G]VDCG-NH2
modifications: thioether N-14; also: homodimer: Lys6 joined to Lys6 of second copy by OCOPEG17OCO (Linker Structure No. 6)

These binders were tested against T1, VEGFR-2 (human, UniProt P35968 20-1356) (assay: cell-based or functional assay).
T1 sequence (P35968 20-1356): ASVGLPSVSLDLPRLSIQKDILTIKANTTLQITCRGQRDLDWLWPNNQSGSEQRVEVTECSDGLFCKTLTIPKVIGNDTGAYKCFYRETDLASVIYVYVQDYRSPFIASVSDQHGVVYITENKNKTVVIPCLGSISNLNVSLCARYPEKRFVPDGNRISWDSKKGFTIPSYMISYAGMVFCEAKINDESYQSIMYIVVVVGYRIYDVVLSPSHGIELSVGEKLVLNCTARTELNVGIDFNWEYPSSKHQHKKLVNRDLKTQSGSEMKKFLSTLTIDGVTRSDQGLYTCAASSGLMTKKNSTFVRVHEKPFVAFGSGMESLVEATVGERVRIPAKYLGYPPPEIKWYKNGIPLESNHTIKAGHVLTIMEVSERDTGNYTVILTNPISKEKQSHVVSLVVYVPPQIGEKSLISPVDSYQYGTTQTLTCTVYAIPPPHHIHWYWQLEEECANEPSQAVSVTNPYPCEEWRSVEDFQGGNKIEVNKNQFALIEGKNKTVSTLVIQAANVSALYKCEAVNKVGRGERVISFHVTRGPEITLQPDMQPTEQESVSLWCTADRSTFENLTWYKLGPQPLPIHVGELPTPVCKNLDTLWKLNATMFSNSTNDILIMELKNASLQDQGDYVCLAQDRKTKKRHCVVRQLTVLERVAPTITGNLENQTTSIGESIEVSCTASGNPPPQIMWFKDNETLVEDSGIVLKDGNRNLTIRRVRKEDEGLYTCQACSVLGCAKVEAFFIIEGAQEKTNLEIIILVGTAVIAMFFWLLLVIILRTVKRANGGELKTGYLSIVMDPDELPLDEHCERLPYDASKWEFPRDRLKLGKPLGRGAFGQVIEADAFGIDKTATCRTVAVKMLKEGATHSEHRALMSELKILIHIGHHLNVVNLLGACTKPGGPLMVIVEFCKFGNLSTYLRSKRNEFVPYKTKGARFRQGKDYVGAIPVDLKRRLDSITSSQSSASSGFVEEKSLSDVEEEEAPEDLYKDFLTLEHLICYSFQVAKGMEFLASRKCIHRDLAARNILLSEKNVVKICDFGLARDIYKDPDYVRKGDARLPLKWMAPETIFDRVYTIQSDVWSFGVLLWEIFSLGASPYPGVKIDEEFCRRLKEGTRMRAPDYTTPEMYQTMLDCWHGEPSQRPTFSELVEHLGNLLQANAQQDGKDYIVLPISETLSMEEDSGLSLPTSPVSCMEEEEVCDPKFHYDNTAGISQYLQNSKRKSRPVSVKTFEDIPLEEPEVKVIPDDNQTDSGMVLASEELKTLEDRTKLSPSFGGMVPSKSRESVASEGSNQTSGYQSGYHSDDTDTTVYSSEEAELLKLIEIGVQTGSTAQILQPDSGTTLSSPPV

Row | Binder | pERK Assay Results (AlphaLISA p-Erk1/2, HUVEC)
1 | B1 | ≥ 50 % activity at 100 nM
2 | B2 | ≥ 50 % activity at 10 nM
3 | B3 | ≥ 50 % activity at 100 nM
4 | B4 | ≥ 50 % activity at 100 nM
5 | B5 | ≥ 50 % activity at 10 nM
6 | B6 | ≥ 50 % activity at 10 nM
7 | B7 | ≥ 50 % activity at 10 nM
8 | B8 | ≥ 50 % activity at 100 nM
9 | B9 | ≥ 50 % activity at 10 nM
10 | B10 | ≥ 50 % activity at 100 nM

Molecular target: T1, VEGFR-2
Assay: cell-based or functional assay
Remark: another data set of the same source

Row | Binder | proliferation (HUVEC, CellTiter-Glo)
11 | B11 | ≥ 50 % activity at 5 nM
12 | B12 | ≥ 50 % activity at 5 nM
13 | B13 | ≥ 50 % activity at 5 nM
14 | B14 | ≥ 50 % activity at 1.25 nM
15 | B15 | ≥ 50 % activity at 5 nM
16 | B16 | ≥ 50 % activity at 1.25 nM
17 | B17 | ≥ 50 % activity at 5 nM

Molecular target: T1, VEGFR-2
Assay: cell-based or functional assay
Remark: another data set of the same source

Row | Binder | pERK Assay Results (AlphaLISA p-Erk1/2, HUVEC)
18 | B11 | ≥ 50 % activity at 5 nM
19 | B12 | ≥ 50 % activity at 20 nM
20 | B13 | ≥ 50 % activity at 5 nM
21 | B14 | ≥ 50 % activity at 20 nM
22 | B15 | ≥ 50 % activity at 20 nM
23 | B16 | ≥ 50 % activity at 20 nM
24 | B17 | ≥ 50 % activity at 5 nM
